# Results taken from patent US12534541B2, “Anti-PTK7 antibody and uses thereof” (MABCARE THERAPEUTICS, priority 2023, dated 2026).
# Like-named read-outs stand apart in the source and are kept apart here.
# B1: h6M24-vc0101: control drug: h6M24 (cofetuzumab) linked to Aur0101 via mc-VC-PAB linker, DAR about 4 (conjugate, chains of the INN, looked up)
# VH: QVQLVQSGPEVKKPGASVKVSCKASGYTFTDYAVHWVRQAPGKRLEWIGVISTYNDYTYNNQDFKGRVTMTRDTSASTAYMELSRLRSEDTAVYYCARGNSYFYALDYWGQGTSVTVSS
# VL: EIVLTQSPATLSLSPGERATLSCRASESVDSYGKSFMHWYQQKPGQAPRLLIYRASNLESGIPARFSGSGSGTDFTLTISSLEPEDFAVYYCQQSNEDPWTFGGGTKLEIK
# modifications: Aur0101 via mc-VC-PAB linker, DAR 4
# Tests used:
# [1] = test system: colorectal cancer PDX LD1-2038-361980; assay: In vivo anti-tumor activity against human colorectal cancer PDX LD1-2038-361980; conditions: NU/NU mice, i.v. 5 mg/kg, once a week, 2 doses, vs negative control
# Description: (§1) 6-week-old NU/NU mice, female, weighing 18-21 g, were purchased from Beijing Vital River Laboratory Animal Technology Co., Ltd. The mice were subcutaneously inoculated with colorectal cancer tumor mass (specimen no. 361980, obtained from Xi'an LIDE Biotech Co. Ltd.). When the average tumor volume reached 150 mm^3, the antibody-drug conjugate Ab13-T1000-exatecan as prepared in Example 5 was administered intravenously at a dose of 10 mg/kg, the antibody-drug conjugate h6M24-vc0101 as prepared in Example 8 was administered intravenously at a dose of 5 mg/kg, and a negative control Vehicle group was set and administered intravenously with PBS at an equal dose, once a week for a total of 2 doses. After dosing, the tumor volume was measured twice a week using a vernier caliper and calculated according to the following formula: TV=(length*width^2)/2.
# [2] = Size exclusion chromatography (SEC) for the degree of aggregation; format: physicochemical; conditions: integral analysis, product after preparation
# Description: (§2) Activated charcoal powder (30 mg of powder per ml of liquid) was then added to the collection solution, which was suspended for 2 h at room temperature, centrifuged, and sterilized using a 0.22 μm filter membrane, and the activated charcoal particles were removed at the same time. The resulting product was calculated by UV for its concentration and DAR value, detected by hydrophobic chromatography (HIC) for product homogeneity, and detected by size exclusion chromatography (SEC) for the degree of aggregation. The products were placed in a refrigerator at −80° C. for cryopreservation.
# as §2, with “At the end of the reaction, the coupling reaction mixture was immediately desalted and exchanged with histidine-acetic acid/NaCl buffer using a desalting column. Activated” for “Activated”, “product was” for “products were”, “cryopreservation. […]” for “cryopreservation.”
# OVCAR-3 cells = assay: In vivo anti-tumor activity against human ovarian cancer cell line OVCAR-3; conditions: OVCAR-3 in NCG mice, i.v. 3 mg/kg or 5 mg/kg, 1 dose, vs negative control
# Description: 6-week-old NCG mice, female, weighing 18-21 g, were purchased from Beijing Vital River Laboratory Animal Technology Co., Ltd. The mice were subcutaneously inoculated with OVCAR-3 cells (Human Ovarian Cancer Cells, ATCC, Catalog No. HTB-161). When the average tumor volume reached 150 mm^3, the antibody-drug conjugates Ab13-T1000-exatecan and h6M24-T1000-exatecan as prepared in Example 5 and the antibody-drug conjugate Ab13-vc0101 and h6M24-vc0101 as prepared in Example 8 were administered intravenously at a dose of 3 mg/kg or 5 mg/kg, respectively, and a negative control Vehicle group was set and administered intravenously with PBS at an equal dose, once a week for a total of 1 dose. After dosing, the tumor volume was measured twice a week using a vernier caliper and calculated according to the following formula: TV=(length*width^2)/2.
# [3] = test system: small cell lung cancer PDX LD1-2025-362797; assay: In vivo anti-tumor activity against human small cell lung cancer PDX LD1-2025-362797; conditions: NU/NU mice, i.v. 5 mg/kg, 1 dose, vs negative control
# Description: 6-week-old NU/NU mice, female, weighing 18-21 g, were purchased from Beijing Vital River Laboratory Animal Technology Co., Ltd. The mice were subcutaneously inoculated with small cell lung cancer tumor mass (specimen no. 362797, obtained from Xi'an LIDE Biotech Co. Ltd.). When the average tumor volume reached 150 mm^3, the antibody-drug conjugates Ab13-T1000-exatecan and h6M24-T1000-exatecan as prepared in Example 5 were administered intravenously at a dose of 10 mg/kg, respectively, the antibody-drug conjugate h6M24-vc0101 as prepared in Example 8 was administered intravenously at a dose of 5 mg/kg, and a negative control Vehicle group was set and administered intravenously with PBS at an equal dose, once a week for a total of 1 dose. After dosing, the tumor volume was measured twice a week using a vernier caliper and calculated according to the following formula: TV=(length*width^2)/2.
# [4] = test system: refractory ovarian cancer expressing PTK7, triple-negative breast cancer, and NSCLC; conditions: cited from earlier work
# [5] = test system: cervical squamous cell carcinoma PDX LD1-0010-362343; assay: In vivo anti-tumor activity against human cervical squamous cell carcinoma PDX LD1-0010-362343; conditions: NU/NU mice, i.v. 5 mg/kg, once a week, 2 doses, vs negative control
# Description: as §1, with “cervical squamous cell carcinoma” for “colorectal cancer”, “362343,” for “361980,”
# [6] = test system: esophageal squamous cell carcinoma PDX LD1-2015-361318; assay: In vivo anti-tumor activity against human esophageal squamous cell carcinoma PDX LD1-2015-361318; conditions: NU/NU mice, i.v. 5 mg/kg, once a week, 2 doses, vs negative control
# Description: as §1, with “esophageal squamous cell carcinoma” for “colorectal cancer”, “361318,” for “361980,”
molecule,measurement,setting,value
B1,tumor growth inhibition (tumor volume over time),[1],does not produce any tumor growth inhibitory effect
same,percentage of aggregates,[2],1.39%
same,tumor growth inhibition (tumor volume over time),OVCAR-3 cells,less effective in inhibiting tumor growth
same,tumor growth inhibition (tumor volume over time),[3],does not produce any tumor growth inhibitory effect
same,dose-limiting toxicity,[4]; highest dose assessed every 3 weeks,Two patients experienced a dose-limiting toxicity (grade 3 headache and fatigue)
same,objective response rate (ORR),[4]; patients with NSCLC (6/31 patients),19%
same,objective response rate (ORR),[4]; patients with refractory ovarian cancer expressing PTK7 (17/63 patients),27%
same,objective response rate (ORR),[4]; patients with triple-negative breast cancer (6/29 patients),21%
same,tumor growth inhibition (tumor volume over time),[5],significantly inhibit tumor growth
same,tumor growth inhibition (tumor volume over time),[6],partially inhibit tumor growth
